Reference: PMC11950179 (Nature Communications, 2025)

T1: human muscle phosphorylase kinase α subunit (PHKA1), dephosphorylated (human, UniProt P46020 1-1223)
T1 sequence (looked up): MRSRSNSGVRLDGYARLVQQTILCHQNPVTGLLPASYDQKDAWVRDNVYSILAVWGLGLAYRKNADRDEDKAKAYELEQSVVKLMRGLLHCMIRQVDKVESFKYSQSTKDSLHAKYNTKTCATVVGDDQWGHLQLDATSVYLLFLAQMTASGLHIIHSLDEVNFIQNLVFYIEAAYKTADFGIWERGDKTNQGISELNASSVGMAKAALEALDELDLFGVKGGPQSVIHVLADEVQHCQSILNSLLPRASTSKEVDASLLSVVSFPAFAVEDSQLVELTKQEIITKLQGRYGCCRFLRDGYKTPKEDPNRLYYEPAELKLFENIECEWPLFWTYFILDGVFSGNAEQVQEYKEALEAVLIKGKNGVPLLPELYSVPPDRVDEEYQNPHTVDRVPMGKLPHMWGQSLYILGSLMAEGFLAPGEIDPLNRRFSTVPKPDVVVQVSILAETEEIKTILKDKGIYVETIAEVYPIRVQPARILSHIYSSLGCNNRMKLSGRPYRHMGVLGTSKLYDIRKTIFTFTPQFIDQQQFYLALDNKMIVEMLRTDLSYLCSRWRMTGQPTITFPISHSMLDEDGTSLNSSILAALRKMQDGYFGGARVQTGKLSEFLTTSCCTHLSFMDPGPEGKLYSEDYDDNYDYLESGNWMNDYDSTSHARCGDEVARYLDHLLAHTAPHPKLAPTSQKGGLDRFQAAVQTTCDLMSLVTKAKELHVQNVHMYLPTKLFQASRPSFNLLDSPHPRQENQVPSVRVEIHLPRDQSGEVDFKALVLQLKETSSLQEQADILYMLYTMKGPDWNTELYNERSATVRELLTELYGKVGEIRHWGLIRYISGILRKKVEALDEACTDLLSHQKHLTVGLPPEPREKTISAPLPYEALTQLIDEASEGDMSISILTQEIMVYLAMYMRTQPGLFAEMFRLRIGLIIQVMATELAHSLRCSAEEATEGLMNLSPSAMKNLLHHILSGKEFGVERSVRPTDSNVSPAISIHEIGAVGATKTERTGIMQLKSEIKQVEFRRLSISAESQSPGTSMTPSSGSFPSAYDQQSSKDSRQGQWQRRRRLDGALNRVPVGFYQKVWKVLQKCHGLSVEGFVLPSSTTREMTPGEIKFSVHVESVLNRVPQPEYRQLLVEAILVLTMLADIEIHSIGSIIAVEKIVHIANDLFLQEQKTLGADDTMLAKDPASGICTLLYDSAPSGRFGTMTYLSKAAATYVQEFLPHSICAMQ

B1: human muscle phosphorylase kinase γ subunit (PHKG1) (enzyme)
chain: not shown
B2: human phosphorylase kinase β subunit (PHKB), dephosphorylated (natural protein, UniProt Q93100 1-1093, looked up)
chain: MAGAAGLTAEVSWKVLERRARTKRSGSVYEPLKSINLPRPDNETLWDKLDHYYRIVKSTLLLYQSPTTGLFPTKTCGGDQKAKIQDSLYCAAGAWALALAYRRIDDDKGRTHELEHSAIKCMRGILYCYMRQADKVQQFKQDPRPTTCLHSVFNVHTGDELLSYEEYGHLQINAVSLYLLYLVEMISSGLQIIYNTDEVSFIQNLVFCVERVYRVPDFGVWERGSKYNNGSTELHSSSVGLAKAALEAINGFNLFGNQGCSWSVIFVDLDAHNRNRQTLCSLLPRESRSHNTDAALLPCISYPAFALDDEVLFSQTLDKVVRKLKGKYGFKRFLRDGYRTSLEDPNRCYYKPAEIKLFDGIECEFPIFFLYMMIDGVFRGNPKQVQEYQDLLTPVLHHTTEGYPVVPKYYYVPADFVEYEKNNPGSQKRFPSNCGRDGKLFLWGQALYIIAKLLADELISPKDIDPVQRYVPLKDQRNVSMRFSNQGPLENDLVVHVALIAESQRLQVFLNTYGIQTQTPQQVEPIQIWPQQELVKAYLQLGINEKLGLSGRPDRPIGCLGTSKIYRILGKTVVCYPIIFDLSDFYMSQDVFLLIDDIKNALQFIKQYWKMHGRPLFLVLIREDNIRGSRFNPILDMLAALKKGIIGGVKVHVDRLQTLISGAVVEQLDFLRISDTEELPEFKSFEELEPPKHSKVKRQSSTPSAPELGQQPDVNISEWKDKPTHEILQKLNDCSCLASQAILLGILLKREGPNFITKEGTVSDHIERVYRRAGSQKLWLAVRYGAAFTQKFSSSIAPHITTFLVHGKQVTLGAFGHEEEVISNPLSPRVIQNIIYYKCNTHDEREAVIQQELVIHIGWIISNNPELFSGMLKIRIGWIIHAMEYELQIRGGDKPALDLYQLSPSEVKQLLLDILQPQQNGRCWLNRRQIDGSLNRTPTGFYDRVWQILERTPNGIIVAGKHLPQQPTLSDMTMYEMNFSLLVEDTLGNIDQPQYRQIVVELLMVVSIVLERNPELEFQDKVDLDRLVKEAFNEFQKDQSRLKEIEKQDDMTSFYNTPPLGKRGTCSYLTKAVMNLLLEGEVKPNNDDPCLIS
B3: human muscle glycogen phosphorylase (PYGM) (enzyme, UniProt P11217 1-842, looked up)
chain: MSRPLSDQEKRKQISVRGLAGVENVTELKKNFNRHLHFTLVKDRNVATPRDYYFALAHTVRDHLVGRWIRTQQHYYEKDPKRIYYLSLEFYMGRTLQNTMVNLALENACDEATYQLGLDMEELEEIEEDAGLGNGGLGRLAACFLDSMATLGLAAYGYGIRYEFGIFNQKISGGWQMEEADDWLRYGNPWEKARPEFTLPVHFYGHVEHTSQGAKWVDTQVVLAMPYDTPVPGYRNNVVNTMRLWSAKAPNDFNLKDFNVGGYIQAVLDRNLAENISRVLYPNDNFFEGKELRLKQEYFVVAATLQDIIRRFKSSKFGCRDPVRTNFDAFPDKVAIQLNDTHPSLAIPELMRILVDLERMDWDKAWDVTVRTCAYTNHTVLPEALERWPVHLLETLLPRHLQIIYEINQRFLNRVAAAFPGDVDRLRRMSLVEEGAVKRINMAHLCIAGSHAVNGVARIHSEILKKTIFKDFYELEPHKFQNKTNGITPRRWLVLCNPGLAEVIAERIGEDFISDLDQLRKLLSFVDDEAFIRDVAKVKQENKLKFAAYLEREYKVHINPNSLFDIQVKRIHEYKRQLLNCLHVITLYNRIKREPNKFFVPRTVMIGGKAAPGYHMAKMIIRLVTAIGDVVNHDPAVGDRLRVIFLENYRVSLAEKVIPAADLSEQISTAGTEASGTGNMKFMLNGALTIGTMDGANVEMAEEAGEENFFIFGMRVEDVDKLDQRGYNAQEYYDRIPELRQVIEQLSSGFFSPKQPDLFKDIVNMLMHHDRFKVFADYEDYIKCQEKVSALYKNPREWTRMVIRNIATSGKFSSDRTIAQYAREIWGVEPSRQRLPAPDEAI

Key:
[1] = target: B3; assay: cross-linking
[2] = target: human calmodulin, δ subunit of phosphorylase kinase (human, UniProt P0DP25 1-149); assay: cryo-EM structure
cryo-EM structure = target: the molecule itself; assay: cryo-EM structure
[3] = target: T1, human muscle phosphorylase kinase α …; assay: cross-linking
[4] = target: B2; assay: cross-linking

Binder: B1
binding result [1]: binds
binding result [2]: binds

Binder: B2
stoichiometry N (cryo-EM structure): 4

Binder: B3
binding result [3]: binds
binding result [4]: binds
